Legend:
Experiment in all cases: two-hybrid library CCmax;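 also: natural log of median RNA to DNA barcode read ratio; higher means stronger binding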
4H376-AA = biological target: T1, 4H376-AA; conditions: mean of both orientations
T1 chain: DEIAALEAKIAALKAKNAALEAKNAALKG

4H3340-AA = biological target: T2, 4H3340-AA; conditions: mean of both orientations
T2 chain: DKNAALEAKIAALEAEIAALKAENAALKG

4H_GCN4 = biological target: 4H_GCN4
4H347-AA = biological target: T3, 4H347-AA; conditions: mean of both orientations
T3 chain: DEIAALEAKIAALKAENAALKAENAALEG

4H2931-AA = biological target: T4, 4H2931-AA; conditions: mean of both orientations
T4 chain: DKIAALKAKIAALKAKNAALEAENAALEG

4H2592-AA = biological target: T5, 4H2592-AA
T5 chain: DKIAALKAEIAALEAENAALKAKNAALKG

4H406-AA = biological target: T6, 4H406-AA; conditions: mean of both orientations
T6 chain: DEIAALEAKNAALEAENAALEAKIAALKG

4H_APH = biological target: T7, 4H_APH; conditions: mean of both orientations
T7 chain: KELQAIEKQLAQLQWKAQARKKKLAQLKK

4H2611-AA = biological target: T8, 4H2611-AA; conditions: mean of both orientations
T8 chain: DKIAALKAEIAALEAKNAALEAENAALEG

4H56-AA = biological target: T9, 4H56-AA; conditions: mean of both orientations
T9 chain: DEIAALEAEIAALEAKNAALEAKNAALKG

4H3001-AA = biological target: T10, 4H3001-AA; conditions: mean of both orientations
T10 chain: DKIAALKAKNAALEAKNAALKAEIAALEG

4H963-AA = biological target: T11, 4H963-AA; conditions: mean of both orientations
T11 chain: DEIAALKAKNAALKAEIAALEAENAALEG

4H2774-AA = biological target: T12, 4H2774-AA; conditions: mean of both orientations
T12 chain: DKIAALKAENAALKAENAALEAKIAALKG

4H2732-AA = biological target: T13, 4H2732-AA; conditions: mean of both orientations
T13 chain: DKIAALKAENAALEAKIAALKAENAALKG

4H3493-AA = biological target: T14, 4H3493-AA; conditions: mean of both orientations
T14 chain: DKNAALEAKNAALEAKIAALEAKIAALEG

4H_BCR = biological target: T15, 4H_BCR; conditions: mean of both orientations
T15 chain: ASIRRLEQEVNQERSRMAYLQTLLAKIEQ

4H3073-AA = biological target: T16, 4H3073-AA; conditions: mean of both orientations
T16 chain: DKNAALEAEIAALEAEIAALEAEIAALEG

4H452-AA = biological target: T17, 4H452-AA; conditions: mean of both orientations
T17 chain: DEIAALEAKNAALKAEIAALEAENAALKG

4H3438-AA = biological target: T18, 4H3438-AA; conditions: mean of both orientations
T18 chain: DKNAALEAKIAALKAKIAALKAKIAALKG

4H3381-AA = biological target: T19, 4H3381-AA; conditions: mean of both orientations
T19 chain: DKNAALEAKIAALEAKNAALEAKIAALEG

4H688-AA = biological target: T20, 4H688-AA; conditions: mean of both orientations
T20 chain: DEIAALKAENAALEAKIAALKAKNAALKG

4H3015-AA = biological target: T21, 4H3015-AA; conditions: mean of both orientations
T21 chain: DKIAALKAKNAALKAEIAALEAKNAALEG

GCN2_T = biological target: GCN2_T
4H2277-AA = biological target: T22, 4H2277-AA; conditions: mean of both orientations
T22 chain: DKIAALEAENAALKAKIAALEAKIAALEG

4H342-AA = biological target: T23, 4H342-AA; conditions: mean of both orientations
T23 chain: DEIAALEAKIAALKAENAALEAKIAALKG

4H2754-AA = biological target: T24, 4H2754-AA; conditions: mean of both orientations
T24 chain: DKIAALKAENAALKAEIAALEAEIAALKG

4H2190-AA = biological target: T25, 4H2190-AA; conditions: mean of both orientations
T25 chain: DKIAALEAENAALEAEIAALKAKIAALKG

4H881-AA = biological target: T26, 4H881-AA; conditions: mean of both orientations
T26 chain: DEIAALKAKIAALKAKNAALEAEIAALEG

4H3627-AA = biological target: T27, 4H3627-AA; conditions: mean of both orientations
T27 chain: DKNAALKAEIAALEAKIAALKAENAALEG

4H2837-AA = biological target: T28, 4H2837-AA; conditions: mean of both orientations
T28 chain: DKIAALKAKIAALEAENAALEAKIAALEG

4H454-AA = biological target: T29, 4H454-AA; conditions: mean of both orientations
T29 chain: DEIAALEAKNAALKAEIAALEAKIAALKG

4H566-AA = biological target: T30, 4H566-AA; conditions: mean of both orientations
T30 chain: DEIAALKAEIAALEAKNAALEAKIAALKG

4H2944-AA = biological target: T31, 4H2944-AA; conditions: mean of both orientations
T31 chain: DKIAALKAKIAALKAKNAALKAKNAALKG

4H3655-AA = biological target: T32, 4H3655-AA; conditions: mean of both orientations
T32 chain: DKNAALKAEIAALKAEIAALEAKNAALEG

4H2165-AA = biological target: T33, 4H2165-AA; conditions: mean of both orientations
T33 chain: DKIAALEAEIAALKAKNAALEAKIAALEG

4H2393-AA = biological target: T34, 4H2393-AA; conditions: mean of both orientations
T34 chain: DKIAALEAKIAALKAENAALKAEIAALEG

4H2949-AA = biological target: T35, 4H2949-AA; conditions: mean of both orientations
T35 chain: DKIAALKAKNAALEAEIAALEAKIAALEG

4H2505-AA = biological target: T36, 4H2505-AA; conditions: mean of both orientations
T36 chain: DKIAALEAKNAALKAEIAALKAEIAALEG

4H993-AA = biological target: T37, 4H993-AA; conditions: mean of both orientations
T37 chain: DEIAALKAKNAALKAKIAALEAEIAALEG

4H2729-AA = biological target: T38, 4H2729-AA; conditions: mean of both orientations
T38 chain: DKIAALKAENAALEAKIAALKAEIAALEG

4H429-AA = biological target: T39, 4H429-AA; conditions: mean of both orientations
T39 chain: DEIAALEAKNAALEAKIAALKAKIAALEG

4H3844-AA = biological target: T40, 4H3844-AA; conditions: mean of both orientations
T40 chain: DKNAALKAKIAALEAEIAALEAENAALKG

4H678-AA = biological target: T41, 4H678-AA; conditions: mean of both orientations
T41 chain: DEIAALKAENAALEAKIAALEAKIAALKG

4H3112-AA = biological target: T42, 4H3112-AA; conditions: mean of both orientations
T42 chain: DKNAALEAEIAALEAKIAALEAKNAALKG

4H317-AA = biological target: T43, 4H317-AA; conditions: mean of both orientations
T43 chain: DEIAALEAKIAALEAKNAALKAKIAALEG

4H48-AA = biological target: T44, 4H48-AA; conditions: mean of both orientations
T44 chain: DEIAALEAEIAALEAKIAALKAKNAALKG

4H605-AA = biological target: T45, 4H605-AA; conditions: mean of both orientations
T45 chain: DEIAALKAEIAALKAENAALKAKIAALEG

4H2642-AA = biological target: T46, 4H2642-AA; conditions: mean of both orientations
T46 chain: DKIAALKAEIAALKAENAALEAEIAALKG

4H2354-AA = biological target: T47, 4H2354-AA; conditions: mean of both orientations
T47 chain: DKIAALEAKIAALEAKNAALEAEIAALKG

4H3427-AA = biological target: T48, 4H3427-AA; conditions: mean of both orientations
T48 chain: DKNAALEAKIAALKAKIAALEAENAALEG

4H3606-AA = biological target: T49, 4H3606-AA; conditions: mean of both orientations
T49 chain: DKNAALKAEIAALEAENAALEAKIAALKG

4H2617-AA = biological target: T50, 4H2617-AA; conditions: mean of both orientations
T50 chain: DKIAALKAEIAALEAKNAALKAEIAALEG

4H2466-AA = biological target: T51, 4H2466-AA; conditions: mean of both orientations
T51 chain: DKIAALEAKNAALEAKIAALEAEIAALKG

4H717-AA = biological target: T52, 4H717-AA; conditions: mean of both orientations
T52 chain: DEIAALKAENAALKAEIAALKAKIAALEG

4H906-AA = biological target: T53, 4H906-AA; conditions: mean of both orientations
T53 chain: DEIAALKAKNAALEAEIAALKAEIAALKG

4H794-AA = biological target: T54, 4H794-AA; conditions: mean of both orientations
T54 chain: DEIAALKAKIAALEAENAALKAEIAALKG

4H2151-AA = biological target: T55, 4H2151-AA
T55 chain: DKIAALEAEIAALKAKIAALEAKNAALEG

4H2883-AA = biological target: T56, 4H2883-AA; conditions: mean of both orientations
T56 chain: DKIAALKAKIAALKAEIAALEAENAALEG

4H3343-AA = biological target: T57, 4H3343-AA; conditions: mean of both orientations
T57 chain: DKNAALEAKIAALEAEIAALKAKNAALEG

4H234-AA = biological target: T58, 4H234-AA; conditions: mean of both orientations
T58 chain: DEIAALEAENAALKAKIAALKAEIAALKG

Chain of 4H_GCN4 (chain, as listed by the source): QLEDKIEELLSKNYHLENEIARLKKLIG

B1: 4H2592-AA (peptide)
chain: DKIAALKAEIAALEAENAALKAKNAALKG
Work on B1 yielded an interaction score (4H376-AA) of 0.226, an interaction score (4H3340-AA) of 0.143 and an interaction score (4H_GCN4) of -1.33. The interaction score (4H347-AA) was 1.59, the interaction score (4H2931-AA) was 1.75 and the interaction score (4H2592-AA) was 1.34. It also gave an interaction score (4H406-AA) of -1.19, an interaction score (4H_APH) of -1.66 and an interaction score (4H2611-AA) of 0.971. It also gave an interaction score (4H56-AA) of -0.726, an interaction score (4H3001-AA) of -1.68 and an interaction score (4H963-AA) of -0.435. For the same binder, the interaction score (4H2774-AA) was 0.283, the interaction score (4H2732-AA) was 0.248 and the interaction score (4H3493-AA) was -1.21. The interaction score (4H_BCR) was -1.75, the interaction score (4H3073-AA) was -0.000754 and the interaction score (4H452-AA) was -0.641. The interaction score (4H3438-AA) was -0.819, the interaction score (4H3381-AA) was -1.72 and the interaction score (4H688-AA) was -1.42. For the same binder, the interaction score (4H3015-AA) was -1.39 and the interaction score (GCN2_T) was -1.04.

B2: 4H2151-AA (peptide)
chain: DKIAALEAEIAALKAKIAALEAKNAALEG
Binder B2 has an interaction score (4H2277-AA) of -1.38, an interaction score (4H342-AA) of -1.26 and an interaction score (4H2754-AA) of -1.27. For the same binder, the interaction score (4H2190-AA) was -1.15, the interaction score (4H881-AA) was -1.51 and the interaction score (4H3627-AA) was -0.182. It also gave an interaction score (4H2837-AA) of -1.4, an interaction score (4H454-AA) of -1.11 and an interaction score (4H566-AA) of -1.47. The interaction score (4H2944-AA) was -1.39, the interaction score (4H3655-AA) was -0.942 and the interaction score (4H2165-AA) was -0.932. The interaction score (4H2393-AA) was -1.54, the interaction score (4H2949-AA) was -0.904 and the interaction score (4H2505-AA) was -1.6. It also gave an interaction score (4H993-AA) of -1.43, an interaction score (4H2729-AA) of -0.63 and an interaction score (4H429-AA) of -1.48. For the same binder, the interaction score (4H3844-AA) was -0.871, the interaction score (4H678-AA) was -1.37 and the interaction score (4H3112-AA) was -0.356. The interaction score (4H317-AA) was -0.983, the interaction score (4H48-AA) was 0.747 and the interaction score (4H605-AA) was -1.4. It also gave an interaction score (4H2642-AA) of -1.42, an interaction score (4H2354-AA) of -1.44 and an interaction score (4H3427-AA) of -1.02. The interaction score (4H3606-AA) was -1.24, the interaction score (4H2617-AA) was -0.476 and the interaction score (4H2466-AA) was -1.42. It also gave an interaction score (4H717-AA) of -1.61, an interaction score (4H906-AA) of -1.28 and an interaction score (4H794-AA) of -1.95. The interaction score (4H2151-AA) was 1.45, the interaction score (4H2883-AA) was 0.105 and the interaction score (4H3343-AA) was -1.19. It also gave an interaction score (4H234-AA) of -1.58.
